Experimental data reported in patent publication US20230250154A1 (CYTONICS, published 2023).

T1: ADAMTS4 (human, UniProt O75173 213-685, limits assumed)
T1 sequence (looked up): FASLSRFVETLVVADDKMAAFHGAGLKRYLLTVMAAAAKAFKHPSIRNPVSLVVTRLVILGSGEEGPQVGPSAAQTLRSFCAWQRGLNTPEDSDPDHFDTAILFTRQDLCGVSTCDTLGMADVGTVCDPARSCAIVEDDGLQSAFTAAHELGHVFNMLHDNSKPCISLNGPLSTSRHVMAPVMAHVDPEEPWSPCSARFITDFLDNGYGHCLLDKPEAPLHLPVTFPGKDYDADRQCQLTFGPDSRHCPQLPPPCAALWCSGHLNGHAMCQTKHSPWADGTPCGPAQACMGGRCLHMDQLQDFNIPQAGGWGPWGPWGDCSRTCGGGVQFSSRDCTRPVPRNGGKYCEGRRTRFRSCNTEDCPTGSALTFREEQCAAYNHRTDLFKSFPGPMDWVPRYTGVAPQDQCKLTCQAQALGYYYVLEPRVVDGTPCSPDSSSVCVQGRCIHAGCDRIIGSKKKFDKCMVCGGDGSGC

T2: ADAMTS5 (human, UniProt Q9UNA0 262-622, limits assumed)
T2 sequence (looked up): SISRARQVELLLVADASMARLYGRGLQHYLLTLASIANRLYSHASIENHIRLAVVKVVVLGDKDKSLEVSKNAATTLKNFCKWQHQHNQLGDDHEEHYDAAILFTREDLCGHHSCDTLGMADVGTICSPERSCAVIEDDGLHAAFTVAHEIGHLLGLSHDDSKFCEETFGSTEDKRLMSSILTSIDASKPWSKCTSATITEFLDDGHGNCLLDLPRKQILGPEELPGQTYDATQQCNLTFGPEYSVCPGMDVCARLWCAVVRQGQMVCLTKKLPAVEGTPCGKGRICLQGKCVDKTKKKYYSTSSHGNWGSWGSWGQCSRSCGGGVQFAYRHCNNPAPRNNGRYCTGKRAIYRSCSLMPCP


Experiments:
Experiment in all cases: cell-based or functional assay
[1] = biological target: T1, ADAMTS4
[2] = biological target: T2, ADAMTS5
[3] = biological target: MMP13 (human, UniProt P45452 104-471, limits assumed)

Protease Inhibition (% of WT) [1]	Protease Inhibition (% of WT) [2]	Protease Inhibition (% of WT) [3]	Binder
105 % of WT	89 % of WT	113 % of WT	Variant A2M, bait region SEQ ID NO 111 (other) SVSGKPQYMVLVPSLLHTETTEKGCVLLSYLNETVTVSASLESVRGNRSLFTDLEAENDVLHCVAFAVPKSSSNEEVMFLTVQVKGPTQEFKKRTTVMVKNEDSLVFVQTDKSIYKPGQTVKFRVVSMDENFHPLNELIPLVYIQDPKGNRIAQWQSFQLEGGLKQFSFPLSSEPFQGSYKVVVQKKSGGRTEHPFTVEEFVLPKFEVQVTVPKIITILEEEMNVSVCGLYTYGKPVPGHVTVSICRKYSDASDCHGEDSQAFCEKFSGQLNSHGCFYQQVKTKVFQLKRKEYEMKLHTEAQIQEEGTVVELTGRQSSEITRTITKLSFVKVDSHFRQGIPFFGQVRLVDGKGVPIPNKVIFIRGNEANYYSNATTDEHGLVQFSINTTNVMGTSLTVRVNYKDRSPCYGYQWVSEEHEEAHHTAYLVFSPSKSFVHLEPMSHELPCGHTQTVQAHYILNGGTLLGLKKLSFYYLIMAKGGIVRTGTHGLLVKQEDMKGHFSISIPVKSDIAPVARLLIYAVLPTGDVIGDSAKYDVENCLANKVDLSFSPSQSLPASHAHLRVTAAPQSVCALRAVDQSVLLMKPDAELSASSVYNLLPEKDLTGFPGPLNDQDDEDCINRHNVYINGITYTPVSSTNEKDMYSFLEDMGLKAFTNSKIRKPKMCPQLEARGLEGGGGGSLLGGYPGSSRGGFKEGVEGGPAGAARGKLRKYFPETWIWDLVVVNSAGVAEVGVTVPDTITEWKAGAFCLSEDAGLGISSTASLRAFQPFFVELTMPYSVIRGEAFTLKATVLNYLPKCIRVSVQLEASPAFLAVPVEKEQAPHCICANGRQTVSWAVTPKSLGNVNFTVSAEALESQELCGTEVPSVPEHGRKDTVIKPLLVEPEGLEKETTFNSLLCPSGGEVSEELSLKLPPNVVEESARASVSVLGDILGSAMQNTQNLLQMPYGCGEQNMVLFAPNIYVLDYLNETQQLTPEIKSKAIGYLNTGYQRQLNYKHYDGSYSTFGERYGRNQGNTWLTAFVLKTFAQARAYIFIDEAHITQALIWLSQRQKDNGCFRSSGSLLNNAIKGGVEDEVTLSAYITIALLEIPLTVTHPVVRNALFCLESAWKTAQEGDHGSHVYTKALLAYAFALAGNQDKRKEVLKSLNEEAVKKDNSVHWERPQKPKAPVGHFYEPQAPSAEVEMTSYVLLAYLTAQPAPTSEDLTSATNIVKWITKQQNAQGGFSSTQDTVVALHALSKYGAATFTRTGKAAQVTIQSSGTFSSKFQVDNNNRLLLQQVSLPELPGEYSMKVTGEGCVYLQTSLKYNILPEKEEFPFALGVQTLPQTCDEPKAHTSFQISLSVSYTGSRSASNMAIVDVKMVSGFIPLKPTVKMLERSNHVSRTEVSSNHVLIYLDKVSNQTLSLFFTVLQDVPVRDLKPAIVKVYDYYETDEFAIAEYNAPCSKDLGNADYKDDDDKGASHHHHHH
115 % of WT	92 % of WT	27 % of WT	Variant A2M, bait region SEQ ID NO 113 (other) SVSGKPQYMVLVPSLLHTETTEKGCVLLSYLNETVTVSASLESVRGNRSLFTDLEAENDVLHCVAFAVPKSSSNEEVMFLTVQVKGPTQEFKKRTTVMVKNEDSLVFVQTDKSIYKPGQTVKFRVVSMDENFHPLNELIPLVYIQDPKGNRIAQWQSFQLEGGLKQFSFPLSSEPFQGSYKVVVQKKSGGRTEHPFTVEEFVLPKFEVQVTVPKIITILEEEMNVSVCGLYTYGKPVPGHVTVSICRKYSDASDCHGEDSQAFCEKFSGQLNSHGCFYQQVKTKVFQLKRKEYEMKLHTEAQIQEEGTVVELTGRQSSEITRTITKLSFVKVDSHFRQGIPFFGQVRLVDGKGVPIPNKVIFIRGNEANYYSNATTDEHGLVQFSINTTNVMGTSLTVRVNYKDRSPCYGYQWVSEEHEEAHHTAYLVFSPSKSFVHLEPMSHELPCGHTQTVQAHYILNGGTLLGLKKLSFYYLIMAKGGIVRTGTHGLLVKQEDMKGHFSISIPVKSDIAPVARLLIYAVLPTGDVIGDSAKYDVENCLANKVDLSFSPSQSLPASHAHLRVTAAPQSVCALRAVDQSVLLMKPDAELSASSVYNLLPEKDLTGFPGPLNDQDDEDCINRHNVYINGITYTPVSSTNEKDMYSFLEDMGLKAFTNSKIRKPKMCPQLEEGEARGSTAQEAGEGPKEEEGLGSSELEGRGSPVSQELGQRKLRKYFPETWIWDLVVVNSAGVAEVGVTVPDTITEWKAGAFCLSEDAGLGISSTASLRAFQPFFVELTMPYSVIRGEAFTLKATVLNYLPKCIRVSVQLEASPAFLAVPVEKEQAPHCICANGRQTVSWAVTPKSLGNVNFTVSAEALESQELCGTEVPSVPEHGRKDTVIKPLLVEPEGLEKETTFNSLLCPSGGEVSEELSLKLPPNVVEESARASVSVLGDILGSAMQNTQNLLQMPYGCGEQNMVLFAPNIYVLDYLNETQQLTPEIKSKAIGYLNTGYQRQLNYKHYDGSYSTFGERYGRNQGNTWLTAFVLKTFAQARAYIFIDEAHITQALIWLSQRQKDNGCFRSSGSLLNNAIKGGVEDEVTLSAYITIALLEIPLTVTHPVVRNALFCLESAWKTAQEGDHGSHVYTKALLAYAFALAGNQDKRKEVLKSLNEEAVKKDNSVHWERPQKPKAPVGHFYEPQAPSAEVEMTSYVLLAYLTAQPAPTSEDLTSATNIVKWITKQQNAQGGFSSTQDTVVALHALSKYGAATFTRTGKAAQVTIQSSGTFSSKFQVDNNNRLLLQQVSLPELPGEYSMKVTGEGCVYLQTSLKYNILPEKEEFPFALGVQTLPQTCDEPKAHTSFQISLSVSYTGSRSASNMAIVDVKMVSGFIPLKPTVKMLERSNHVSRTEVSSNHVLIYLDKVSNQTLSLFFTVLQDVPVRDLKPAIVKVYDYYETDEFAIAEYNAPCSKDLGNADYKDDDDKGASHHHHHH
108 % of WT	199 % of WT	56 % of WT	Variant A2M, bait region SEQ ID NO 112 (other) SVSGKPQYMVLVPSLLHTETTEKGCVLLSYLNETVTVSASLESVRGNRSLFTDLEAENDVLHCVAFAVPKSSSNEEVMFLTVQVKGPTQEFKKRTTVMVKNEDSLVFVQTDKSIYKPGQTVKFRVVSMDENFHPLNELIPLVYIQDPKGNRIAQWQSFQLEGGLKQFSFPLSSEPFQGSYKVVVQKKSGGRTEHPFTVEEFVLPKFEVQVTVPKIITILEEEMNVSVCGLYTYGKPVPGHVTVSICRKYSDASDCHGEDSQAFCEKFSGQLNSHGCFYQQVKTKVFQLKRKEYEMKLHTEAQIQEEGTVVELTGRQSSEITRTITKLSFVKVDSHFRQGIPFFGQVRLVDGKGVPIPNKVIFIRGNEANYYSNATTDEHGLVQFSINTTNVMGTSLTVRVNYKDRSPCYGYQWVSEEHEEAHHTAYLVFSPSKSFVHLEPMSHELPCGHTQTVQAHYILNGGTLLGLKKLSFYYLIMAKGGIVRTGTHGLLVKQEDMKGHFSISIPVKSDIAPVARLLIYAVLPTGDVIGDSAKYDVENCLANKVDLSFSPSQSLPASHAHLRVTAAPQSVCALRAVDQSVLLMKPDAELSASSVYNLLPEKDLTGFPGPLNDQDDEDCINRHNVYINGITYTPVSSTNEKDMYSFLEDMGLKAFTNSKIRKPKMCPQLEPGLAPGGEEGVEEGGPEEGVEEGGFKEGVEGEPESSGKLRKYFPETWIWDLVVVNSAGVAEVGVTVPDTITEWKAGAFCLSEDAGLGISSTASLRAFQPFFVELTMPYSVIRGEAFTLKATVLNYLPKCIRVSVQLEASPAFLAVPVEKEQAPHCICANGRQTVSWAVTPKSLGNVNFTVSAEALESQELCGTEVPSVPEHGRKDTVIKPLLVEPEGLEKETTFNSLLCPSGGEVSEELSLKLPPNVVEESARASVSVLGDILGSAMQNTQNLLQMPYGCGEQNMVLFAPNIYVLDYLNETQQLTPEIKSKAIGYLNTGYQRQLNYKHYDGSYSTFGERYGRNQGNTWLTAFVLKTFAQARAYIFIDEAHITQALIWLSQRQKDNGCFRSSGSLLNNAIKGGVEDEVTLSAYITIALLEIPLTVTHPVVRNALFCLESAWKTAQEGDHGSHVYTKALLAYAFALAGNQDKRKEVLKSLNEEAVKKDNSVHWERPQKPKAPVGHFYEPQAPSAEVEMTSYVLLAYLTAQPAPTSEDLTSATNIVKWITKQQNAQGGFSSTQDTVVALHALSKYGAATFTRTGKAAQVTIQSSGTFSSKFQVDNNNRLLLQQVSLPELPGEYSMKVTGEGCVYLQTSLKYNILPEKEEFPFALGVQTLPQTCDEPKAHTSFQISLSVSYTGSRSASNMAIVDVKMVSGFIPLKPTVKMLERSNHVSRTEVSSNHVLIYLDKVSNQTLSLFFTVLQDVPVRDLKPAIVKVYDYYETDEFAIAEYNAPCSKDLGNADYKDDDDKGASHHHHHH
